According to US20130288983A1 (Amgen, published 2013):

T1: Activin A (Homo sapiens (Human), UniProt P08476 311-426)
T1 sequence: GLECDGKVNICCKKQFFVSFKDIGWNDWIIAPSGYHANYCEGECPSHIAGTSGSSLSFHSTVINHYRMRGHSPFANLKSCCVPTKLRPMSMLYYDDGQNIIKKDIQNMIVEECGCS


Key:
Myostatin (human) = Myostatin (human) (UniProt O14793); experiment: cell-based or functional assay
Activin A [1] = target: T1, Activin A; experiment: Biacore SPR grade, CHO stable conditioned media, 20 nM activin A
Method: (§1) Qualitative BIAcore® Assay. E28 and R40 were substituted respectively with other natural amino acids in fusions with IgG1 Fc as described above. Each vActRIIB-IgG1Fc sample from conditioned media was captured on goat anti-human IgG1 Fc antibody (Jackson Immuno Research, cat#109-005-098, lot 63550) coated CMS surface. 20 nM of Activin A was injected over captured sample surfaces using BIACore2000 (BIACore Life Sciences, Piscataway, N.J.). The resulting sensorgrams were normalized to the captured RL (500 RU) of vActRIIB-IgG1Fc variants. The normalized binding response (RU) for some variants are shown in Table 2, and is further described below. Relative binding affinity for activin was also determined by Biacore measurements using conditioned media obtained from mammalian cell expression. Activin A (20 nM) was used to capture soluble receptor polypeptide in the conditioned media and measured SPR signals were normalized. Normalized SPR of +++++: >60, ++++:40-60, +++:20-40, ++:10-20, +: 5-10, −: <5.

Activin A [2] = target: T1, Activin A; experiment: Biacore SPR grade, COS transient conditioned media, 20 nM activin A
Method: as §1

Activin A [3] = target: T1, Activin A; experiment: Biacore SPR grade, COS stable conditioned media, 20 nM activin A
Method: as §1

Chain of Myostatin (human) (O14793 267-375 limits assumed): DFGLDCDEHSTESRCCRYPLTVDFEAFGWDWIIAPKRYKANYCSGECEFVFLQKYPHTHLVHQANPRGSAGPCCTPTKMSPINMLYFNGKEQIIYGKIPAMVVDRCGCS

Molecule	IC50 (nM) for myostatin cell based assay, C2C12/pMARE-luc, 4 nM myostatin (Myostatin (human)) [nM]	Normalized SPR (Activin A [3]) [ru]	further results
ActRIIB-IgG1 Fc E28A, linker GGGGS (Fc fusion, Tested from conditioned media) SGRGEAETRACIYYNANWELERTNQSGLERCEGEQDKRLHCYASWRNSSGTIELVKKGCWLDDFNCYDRQECVATEENPQVYFCCCEGNFCNERFTHLPEAGGPEVTYEPPPTAPTGGGGSAPELLGGPSVFLFPPKPKDILMISRTPEVTCVVVDVSHEDPEVKFNWYVGGVEVHNAKTKPREEQYNSTYRVVSVLTVLHQDWLNGKEYKCKVSNKALPAPIEKTISKAKGQPREPQVYTLPPSRDELTKNQVSLTCLVKGFYPSDIAVEWESNGQPENNYKTTPPVLDSDGSFFLYSKLTVDKSRWQQGNVFSCSVMHEALHNHYTQKSLSLSPGK	–	–	Normalized SPR (Activin A [1]): 20 to 40 ru; normalized SPR signal (Activin A [2]): 5 to 10 ru
ActRIIB-IgG1 Fc wild type, no linker (Fc fusion, Tested from conditioned media) SGRGEAETRECIYYNANWELERTNQSGLERCEGEQDKRLHCYASWRNSSGTIELVKKGCWLDDFNCYDRQECVATEENPQVYFCCCEGNFCNERFTHLPEAGGPEVTYEPPPTAPTAPELLGGPSVFLFPPKPKDILMISRTPEVTCVVVDVSHEDPEVKFNWYVGGVEVHNAKTKPREEQYNSTYRVVSVLTVLHQDWLNGKEYKCKVSNKALPAPIEKTISKAKGQPREPQVYTLPPSRDELTKNQVSLTCLVKGFYPSDIAVEWESNGQPENNYKTTPPVLDSDGSFFLYSKLTVDKSRWQQGNVFSCSVMHEALHNHYTQKSLSLSPGK	–	10 to 20	–
ActRIIB-IgG1 Fc E28A, no linker (Fc fusion, Tested from conditioned media) SGRGEAETRACIYYNANWELERTNQSGLERCEGEQDKRLHCYASWRNSSGTIELVKKGCWLDDFNCYDRQECVATEENPQVYFCCCEGNFCNERFTHLPEAGGPEVTYEPPPTAPTAPELLGGPSVFLFPPKPKDILMISRTPEVTCVVVDVSHEDPEVKFNWYVGGVEVHNAKTKPREEQYNSTYRVVSVLTVLHQDWLNGKEYKCKVSNKALPAPIEKTISKAKGQPREPQVYTLPPSRDELTKNQVSLTCLVKGFYPSDIAVEWESNGQPENNYKTTPPVLDSDGSFFLYSKLTVDKSRWQQGNVFSCSVMHEALHNHYTQKSLSLSPGK	–	10 to 20	–

The next lines start with results.

IC50 (nM) for myostatin cell based assay, C2C12/pMARE-luc, 4 nM myostatin (Myostatin (human)) [nM]	Normalized SPR (Activin A [3]) [ru]	Molecule	further results
1.1	–	hActRIIB-hIgG2Fc (SEQ ID NO: 89) (Fc fusion)	–
0.9	–	hActRIIB-hIgG2Fc (E28W) (SEQ ID NO: 91) (Fc fusion)	–
1	–	hActRIIB-hIgG2Fc (E28Y) (SEQ ID NO: 93) (Fc fusion)	–
–	10 to 20	ActRIIB-IgG1 Fc R40A, no linker (Fc fusion, Tested from conditioned media) SGRGEAETRECIYYNANWELEATNQSGLERCEGEQDKRLHCYASWRNSSGTIELVKKGCWLDDFNCYDRQECVATEENPQVYFCCCEGNFCNERFTHLPEAGGPEVTYEPPPTAPTAPELLGGPSVFLFPPKPKDILMISRTPEVTCVVVDVSHEDPEVKFNWYVGGVEVHNAKTKPREEQYNSTYRVVSVLTVLHQDWLNGKEYKCKVSNKALPAPIEKTISKAKGQPREPQVYTLPPSRDELTKNQVSLTCLVKGFYPSDIAVEWESNGQPENNYKTTPPVLDSDGSFFLYSKLTVDKSRWQQGNVFSCSVMHEALHNHYTQKSLSLSPGK	–
